Measured values from publication PMC12657314, “Structural modeling and biochemical characterization of MSMEG_0748, a MoxR ATPase from Mycobacterium smegmatis” (Computational and Structural Biotechnology Journal, 2025).
Where a chain is given by its changes, count along the chain named. In names and notes the source's numbering stands.

B1: MSMEG_0748 (Mycolicibacterium smegmatis MC2 155) (protein)
chain: MRMAAEPGAAVTGFGGVDDVVRRFDAHDYLLDEGTATAIYLAVSLGRPLLLEGEPGVGKTTAAKTLAAVLGTPLIRLQCYEGLTASEALYDWNYQRQLLSIRLAEARGGEHLDEAALYTESYLVDRPILQCVRHRGPSSPVLLVDEIDRADDEFEALLLEFLGEAAVTVPELGTFVAERPPVVVLTSNRSRDLHDALRRRCLYHWIEYPQRAQAVAIVRRTVPGATDALIDSAVQFVSAARELDLDKPPGVAETIDWVAALVALRVGDLVDPAALGTLGALAKTPDDSGLMRDALLDLTN
notes: full length, N-terminal His-tag cut off by rTEV protease, expressed in E. coli BL21(DE3)
B2: MSMEG_0748 (Mycolicibacterium smegmatis MC2 155; E146Q) (protein)
chain: B1 chain with E146Q
notes: as for B1
B3: MSMEG_0748 (MoxR-type AAA+ ATPase from Mycobacterium smegmatis mc2 155), recombinant, tag-cleaved (enzyme, UniProt A0QQG6 1-300, looked up)
chain: B1 chain
notes: MSMEG_0748, MoxR-type AAA+ ATPase, Mycobacterium smegmatis mc2 155, UniProt A0QQG6; amplified from genomic DNA into pProEX-HTa; full-length protein of about 32.7 kDa after removal of the His tag by rTEV protease; also called wild-type MSMEG_0748; MoxR ATPase; source: E. coli BL21(DE3), purified (Ni-NTA, TEV cleavage, second Ni-NTA, SEC on Superdex 200); not shown: His-tag, N-terminal, cleaved

Experiments:
purified protein = substrate: Nc1ncnc2c1ncn2[C@@H]1O[C@H](COP(=O)(O)OP(=O)(O)OP(=O)(O)O)[C@@H](O)[C@H]1O; experiment: purified protein; assay type: biochemical, Mycolicibacterium smegmatis; settings: 50 mM Tris-HCl pH 8.0, 150 mM KCl, 2 mM MgCl2, 2 mM DTT, 30 °C, 200 nM protein
[1] = biological target: the molecule itself; experiment: SEC-MALS; Superdex 200 Increase 10/300 GL, 5 mg/mL protein injected, 20 mM Tris-HCl pH 7.5, 300 mM NaCl, 0.5 mM TCEP, flow 0.5 mL/min; DAWN Heleos II detector

Protein	Km (purified protein)	kcat (purified protein)	stoichiometry N [1]
B1	0.6951 µM	0.0251 S^−1	–
B2	0.9024 µM	0.0189 S^−1	–
B3	–	–	6
